Results published in patent publication US20260199507A1 (MULTITUDE THERAPEUTICS, published 2026).
Residue numbers refer to the chain shown, from its start.

B1: Ch02 (antibody, human IgG1, kappa, V domains shown)
VH: EVKLVESGGGLVQPGGSLRLSCATSGFTFTEYHMSWVRQPPGKALEWLGFIRNRANGYTTEYSASVKGRFTISRDNSQNILYLQMNTLRTEDSATYYCARLTMVVAEFDYWGQGTTLTVSS
VL: DIQMTQSPSSLSASLGGEVTITCKASQDINKYIAWYQHKPGKGPRLLIHYTSTLQPGIPSRFSGSGSGRDYSFSVSNLEPEDIATYYCLQYDNLLTFGAGTKLELKR
notes: also called chimeric antibody Ch02; Ch02 antibody
B2: Hu02 L1H1 (antibody, human IgG1, kappa, V domains shown)
VH: EVQLVESGGGLVQPGGSLRLSCAASGFTFTEYHMSWVRQAPGKGLEWVGFIRNRANGYTTEYAASVKGRFTISRDDSKNSLYLQMNSLKTEDTAVYYCARLTMVVAEFDYWGQGTLVTVSS
VL: DIQMTQSPSSLSASVGDRVTITCQASQDINKYLNWYQHKPGKGPKLLIYYTSTLQTGVPSRFSGSGSGTDFTFTVSNLQPEDIATYYCLQYDNLLTFGQGTKLEIKR
B3: Hu02 L2H2 (antibody, human IgG1, kappa, V domains shown)
VH: B2 VH with G57A
VL: B2 VL with D1A, D17E, Q24R
B4: Hu02 L1H3 (antibody, human IgG1, kappa, V domains shown)
VH: B2 VH with N56Q
VL: B2 VL
B5: Hu02-L1H2 (antibody, human IgG1, kappa, V domains shown)
VH: B2 VH with G57A
VL: B2 VL
B6: Hu02 L2H5 (antibody, human IgG1, kappa, V domains shown)
VH: B2 VH with G57A, D76N, S87T, K89R
VL: B2 VL with D1A, D17E, Q24R
B7: Hu02 L2H6 (antibody, human IgG1, kappa, V domains shown)
VH: B2 VH with N56Q, D76N, S87T, K89R
VL: B2 VL with D1A, D17E, Q24R
B8: Hu02 L2H3 (antibody, human IgG1, kappa, V domains shown)
VH: B2 VH with N56Q
VL: B2 VL with D1A, D17E, Q24R
B9: Hu02 L1H6 (antibody, human IgG1, kappa, V domains shown)
VH: B2 VH with N56Q, D76N, S87T, K89R
VL: B2 VL
B10: Hu02 L1H4 (antibody, human IgG1, kappa, V domains shown)
VH: B2 VH with D76N, S87T, K89R
VL: B2 VL
B11: Hu02 L2H1 (antibody, human IgG1, kappa, V domains shown)
VH: B2 VH
VL: B2 VL with D1A, D17E, Q24R
B12: Hu02 L1H5 (antibody, human IgG1, kappa, V domains shown)
VH: B2 VH with G57A, D76N, S87T, K89R
VL: B2 VL
B13: Mu01 (antibody, V domains shown)
VH: QVQLQQSGAELVRPGSSVKISCKASGYTFSSYWMYWVKQRPGQGLEWIGQIYPGDGDSNYNENFKGKATLTADKSSSTAYMQLSSLTSEDSAVYFCTREGYGNRFAYWGQGTLVTVSA
VL: QIVLTQSPALMSASPGEKVTMTCSASSSVSYMYWYQQKPRSSPKPWINLTSNLASGVPARFSGRGSGTSYSLTISSMEAEDAATYYCQQWSYNPPTFGGGTKLEIK
notes: Murine hybridoma antibody purified from ascites; also called monoclonal antibody Mu01; antibody Mu01
B14: Hu01 L5H2 (antibody, human IgG1, kappa, V domains shown)
VH: QVQLVQSGAEVKRPGSSVKVSCKASGYTFSSYWMYWVRQAPGQGLEWIGQIYPGDGDSNYNENFQGRVTITADKSTSTAYMELSSLTSEDSAVYFCTREGYGNRFAYWGQGTLVTVSS
VL: EIVLTQSPALLSLSPGERATLSCSASSSVSYMYWYQQKPGQAPRLLIQLTSNLASGVPARFSGRGSGTDFTLTISSLEPEDFAVYYCQQWSYNPPTFGGGTKVEIKR
B15: Hu01-L3H1 (antibody, human IgG1, kappa, V domains shown)
VH: B14 VH with T87R, S91T, F95Y
VL: B14 VL with L11M, G40R, Q41S, L45P, L46W, T71S, P79A, V84T
notes: also called Hu01 antibody L3H1
B16: Hu01 L3H2 (antibody, human IgG1, kappa, V domains shown)
VH: B14 VH
VL: B14 VL with L11M, G40R, Q41S, L45P, L46W, T71S, P79A, V84T
B17: Hu01 L5H1 (antibody, human IgG1, kappa, V domains shown)
VH: B14 VH with T87R, S91T, F95Y
VL: B14 VL

What follows are binders tested against T1, CD142 (Tissue Factor) on BxPC3 human pancreatic cancer cells (human, UniProt P13726 33-295) (assay: flow cytometry on BxPC3 cells).
T1 construct: whole, on cells; also called TF
Method: Digested cells were centrifuged at 1000 rpm for 5 min and blocked with 10% goat serum (purchased from SenBeiJia Biological Technology Co., Ltd., Product No. SRJ-SE-GO012) for 30 min. Then Hu02 antibodies L1H1, L1H2, L1H3, L1H4, L1H5, L1H6, L2H1, L2H2, L2H3, L2H5, and L2H6 prepared in Example 5 were serially diluted 3 times with an initial concentration of 500 nM. After that, the Hu02 antibody was added to the cells and incubated for 1 h. After washing twice with PBS, FITC-labeled goat anti-human antibody (purchased from Sigma, product No. FS9512-2ML) was added at 1:500 and incubated for 1 h. The results were analyzed by flow cytometry (BD biosciences, product No. BD Accuri C6 Plus) after washing twice with PBS.

Going from B1 to B2, the EC50 falls from 19.2 nM to 11.6 nM (1.7-fold). The second is the more potent here.

B3 and B4 are within 1.5-fold of each other in EC50: 18.3 nM for the first, 19.7 nM for the second.

Going from B5 to B6, the EC50 falls from 13.2 nM to 8.12 nM (1.6-fold). The second is the more potent here.

Compared with B7, B8 is 3.9-fold higher in EC50: 6.54 nM for the first, 25.2 nM for the second.

Going from B9 to B10, the EC50 falls from 10.2 nM to 6.39 nM (1.6-fold). The second is the more potent here.

Going from B11 to B12, the EC50 falls from 18.1 nM to 9.48 nM (1.9-fold).

The binders below were run against T1, CD142 (Tissue Factor) on BxPC3 human … (assay: flow cytometry on BxPC3 cells, antibody at 20 ug/mL, FITC goat anti-mouse detection).
Method: Digested cells were centrifuged at 1000 rpm for 5 min and blocked with 10% goat serum (purchased from SenBeiJia Biological Technology Co., Ltd., Product No. SRJ-SE-GOO12) for 30 min. Then Mu01 and Mu02 antibodies respectively prepared in Example 4 and Example 5 were added at a final concentration of 20 μg/mL and incubated for 1 h. After washing with Phosphate buffer (PBS, PH 7.2-7.4) for 2 times, FITC-labeled goat anti-mouse antibody (purchased from Jackson ImmunoResearch, No. 115-545-003) was added at 1:500 and incubated for 1 hour. Analyzed the resulting product by flow cytometry after washing with PBS for 2 times.

B13: binds.

The binders below were run against T1, CD142 (Tissue Factor) on BxPC3 human … (assay: flow cytometry on BxPC3 cells, 3-fold dilutions from 500 nM, FITC goat anti-human detection).
Method: Digested cells were centrifuged at 1000 rpm for 5 min and blocked with 10% goat serum (purchased from SenBeiJia Biological Technology Co., Ltd., Product No. SRJ-SE-GO012) for 30 min. Then Hu01 antibodies L5H2, L5H1, L3H1, L3H2 prepared in Example 4 were diluted with a 3-fold gradient at the initial concentration of 500 nM. After that, the Hu01 antibody was added to the cells and incubated for 1 h. After washing twice with PBS, FITC-labeled goat anti-human antibody (purchased from Sigma, product No. FS9512-2ML) was added at 1:500 and incubated for 1 h. The results were analyzed by flow cytometry after washing twice with PBS.

B14: binds.
B15: binds.
B16: binds.
B17: binds.
